From paper PMC4021073, “Breast tumor specific mutation in GATA3 affects physiological mechanisms regulating transcription factor turnover” come the findings set out here.

The data set concerns the target GATA3 DBD wild-type (UniProt P23771-2 261-371). The data set is described as follows: EMSA; 0.5-4 uM protein, 30 uM DNA; 28 mM Tris-HCl pH 7.5, 120 mM NaCl, 1 mM DTT, 0.8 mM 2-mercaptoethanol, 4% glycerol, 0.4 uM zinc sulfate; 10 min at 37 C; 10 ul. As to conditions: protein: recombinant; (pET-15b hexahistidine fusion); label: none (ethidium bromide stain); blunt (20 bp; one strand printed). On the technique in general: A gel shift assay detects complexes by their altered migration in electrophoresis.

Chain of GATA3 DBD wild-type (P23771 260-370): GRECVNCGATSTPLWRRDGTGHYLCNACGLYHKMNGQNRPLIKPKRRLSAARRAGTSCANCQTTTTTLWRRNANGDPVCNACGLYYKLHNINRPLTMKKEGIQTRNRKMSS

B1: GATA+ 20 bp (dsDNA)
DNA 1: AATGTCCATCTGATAAGACG
DNA 2: CGTCTTATCAGATGGACATT
Take B1: the binding result was “binds”.
